# Measured values published in paper PMC9244803, “Development and Optimization of Bifunctional Fusion Proteins to Locally Modulate Complement Activation in Diseased Tissue” (Frontiers in Immunology, 2022).
# What was measured:
# [1] = target: T1, Human C3d crystallised with Fab(3d8b) (human, UniProt P01024); assay: crystal structure; Fab(3d8b):C3d complex, sitting-drop vapor diffusion at 20°C, PEG, pH 7.0 to 8.5; 1.75 Å; PDB 7UE9; settings: both partners purified
# T1 construct: human C3d as in PDB 7UE9 chain C
# [2] = target: T2, C3d deposited in the kidneys of CfH^-/- mice (mouse (endogenous in CfH^-/- mouse …, UniProt P01027)); assay: immunostaining of cells or tissue; proteins injected into CfH^-/- mice; frozen kidney sections taken 7 or 14 days post-dose and stained with anti-Crry or anti-human IgG4; settings: one partner purified
# T2 construct: C3d-containing fragments of mouse complement C3 deposited in renal glomeruli; source: endogenous, kidney glomeruli of CfH^-/- mice
# T2 sequence (P01027 1002-1303): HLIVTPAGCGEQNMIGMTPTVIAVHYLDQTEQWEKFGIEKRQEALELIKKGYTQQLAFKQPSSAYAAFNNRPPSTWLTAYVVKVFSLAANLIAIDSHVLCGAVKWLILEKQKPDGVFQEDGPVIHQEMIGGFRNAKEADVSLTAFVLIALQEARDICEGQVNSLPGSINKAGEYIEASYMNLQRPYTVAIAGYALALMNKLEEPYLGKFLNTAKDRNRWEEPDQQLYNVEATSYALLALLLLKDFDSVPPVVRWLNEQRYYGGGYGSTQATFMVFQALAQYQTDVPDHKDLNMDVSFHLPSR
# T1 sequence (P01024 1002-1303): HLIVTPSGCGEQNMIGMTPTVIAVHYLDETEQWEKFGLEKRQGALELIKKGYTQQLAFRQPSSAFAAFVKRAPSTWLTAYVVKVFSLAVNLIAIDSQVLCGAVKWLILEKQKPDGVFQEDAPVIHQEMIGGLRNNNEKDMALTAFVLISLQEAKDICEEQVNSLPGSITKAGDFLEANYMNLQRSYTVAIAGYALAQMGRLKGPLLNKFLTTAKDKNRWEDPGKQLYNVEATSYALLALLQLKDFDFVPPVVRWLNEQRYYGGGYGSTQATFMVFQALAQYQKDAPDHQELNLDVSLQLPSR
binding result [1],binding result [2],Binder
binds,–,"humanized Fab(3d8b) (Fab, V domains shown, heavy chain (H) of PDB 7UE9; light chain (L) of PDB 7UE9; CDRs of mouse clone 3d8b grafted onto a human framework; solved with an IgG4-derived Fab (PDB 5DK3) as search model; also called 3d8b Fab) VH: QVQLVQSGAEVKKPGASVKVSCKASGYTFTNYYINWVRQAPGQGLEWMGVINPYSGGTSYNQKFKGRVTMTVDTSTSTAYMELSSLRSEDTAVYFCSSPYWGQGTLVTVSS VL: DVVMTQSPLSLPVTLGQPASISCKSSQSLLDSDGKTYLNWFQQRPGQSPRRLIYLVSKLDSGVPDRFSGSGSGTDFTLKISRVEAEDVGVYYCWQGTHFPRTFGGGTKVEIK"
–,binds,"humanized C3d mAb-CR1_(1-10) (antibody, V domains shown, humanised heavy variable region with the CDRs of 3d8b; as the variable region of the heavy chain of m3 (PDB 7UE9 chain H); human IgG4 heavy constant region, hinge stabilized and Fc-mutated; (Gly4Ser)2 linker; human complement receptor type 1 (CR1), the first 10 consensus repeats; humanised light chain with the CDRs of 3d8b; as the light chain of m3 (PDB 7UE9 chain L); also called lead fusion …) VH: QVQLVQSGAEVKKPGASVKVSCKASGYTFTNYYINWVRQAPGQGLEWMGVINPYSGGTSYNQKFKGRVTMTVDTSTSTAYMELSSLRSEDTAVYFCSSPYWGQGTLVTVSS VL: DVVMTQSPLSLPVTLGQPASISCKSSQSLLDSDGKTYLNWFQQRPGQSPRRLIYLVSKLDSGVPDRFSGSGSGTDFTLKISRVEAEDVGVYYCWQGTHFPRTFGGGTKVEIK"
–,binds,"humanized C3d mAb (CDRs of 3d8b grafted onto human IgG4 S228P, L235E) (antibody, V domains shown, humanised heavy variable region with the CDRs of 3d8b; as the variable region of the heavy chain of m3 (PDB 7UE9 chain H); human IgG4 heavy constant region, hinge stabilized and Fc-mutated; humanised light chain with the CDRs of 3d8b; as the light chain of m3 (PDB 7UE9 chain L); IgG4; source: CHO cells, transient, purified (Protein A or IMAC, SEC)) VH: QVQLVQSGAEVKKPGASVKVSCKASGYTFTNYYINWVRQAPGQGLEWMGVINPYSGGTSYNQKFKGRVTMTVDTSTSTAYMELSSLRSEDTAVYFCSSPYWGQGTLVTVSS VL: DVVMTQSPLSLPVTLGQPASISCKSSQSLLDSDGKTYLNWFQQRPGQSPRRLIYLVSKLDSGVPDRFSGSGSGTDFTLKISRVEAEDVGVYYCWQGTHFPRTFGGGTKVEIK"
